Reference: paper PMC10873206 (Nature Structural & Molecular Biology, 2024)

Tests used:
neddylated CUL1–RBX1 = biological target: T1, neddylated CUL1–RBX1 (human, UniProt Q13616 1-776; P62877 5-108; Q15843 1-76, NEDD8 covalently linked to a conserved cullin lysine (WHB domain) | C terminus covalently linked to the cullin lysine); test: cryo-EM structure; trapped chain formation complex: neddylated CUL1–RBX1, SKP1–FBXW7, K48C ubiquitin–cyclin E phosphopeptide, donor ubiquitin(1–75), UBE2R2; SEC-purified; 8.1 Å map, rigid-body fits; settings: both partners purified
T1 construct: CUL1, human, wild type; RBX1, human, residues 5 to C terminus; NEDD8, human; purified as previously described; also called NEDD8–CUL1–RBX1; neddylated CRL1 core; source: High Five insect cells (baculovirus), co-expressed, purified (GST-sepharose, TEV cleavage, ion exchange, SEC); neddylated as previously described; not shown: GST, N-terminal, cleaved; copies: + +

[1] = biological target: T2, His-ubiquitin(1–75)–BmDPA (human, UniProt P0CG48 1-75, C terminus (residue 75) conjugated to (E)-3-[2-(bromomethyl)-1,3-dioxolan-2-yl]prop-2-en-1-amine (BmDPA), cross-linked to Cys48 of the acceptor ubiquitin and to the UBE2R2 active site cysteine); test: cryo-EM structure; trapped chain formation complex: neddylated CUL2–RBX1, Elongin B/C–VHL, PROTAC MZ1, K48C ubiquitin–BRD4 (352–460), donor ubiquitin(1–75), UBE2R2; SEC-purified; 7.5 Å map, rigid-body fits; settings: both partners purified
T2 construct: ubiquitin, human, residues 1–75; also called UBD; donor ubiquitin

T1 sequence (Q13616 whole entry, chain 1 of 3, the tested form may be a part): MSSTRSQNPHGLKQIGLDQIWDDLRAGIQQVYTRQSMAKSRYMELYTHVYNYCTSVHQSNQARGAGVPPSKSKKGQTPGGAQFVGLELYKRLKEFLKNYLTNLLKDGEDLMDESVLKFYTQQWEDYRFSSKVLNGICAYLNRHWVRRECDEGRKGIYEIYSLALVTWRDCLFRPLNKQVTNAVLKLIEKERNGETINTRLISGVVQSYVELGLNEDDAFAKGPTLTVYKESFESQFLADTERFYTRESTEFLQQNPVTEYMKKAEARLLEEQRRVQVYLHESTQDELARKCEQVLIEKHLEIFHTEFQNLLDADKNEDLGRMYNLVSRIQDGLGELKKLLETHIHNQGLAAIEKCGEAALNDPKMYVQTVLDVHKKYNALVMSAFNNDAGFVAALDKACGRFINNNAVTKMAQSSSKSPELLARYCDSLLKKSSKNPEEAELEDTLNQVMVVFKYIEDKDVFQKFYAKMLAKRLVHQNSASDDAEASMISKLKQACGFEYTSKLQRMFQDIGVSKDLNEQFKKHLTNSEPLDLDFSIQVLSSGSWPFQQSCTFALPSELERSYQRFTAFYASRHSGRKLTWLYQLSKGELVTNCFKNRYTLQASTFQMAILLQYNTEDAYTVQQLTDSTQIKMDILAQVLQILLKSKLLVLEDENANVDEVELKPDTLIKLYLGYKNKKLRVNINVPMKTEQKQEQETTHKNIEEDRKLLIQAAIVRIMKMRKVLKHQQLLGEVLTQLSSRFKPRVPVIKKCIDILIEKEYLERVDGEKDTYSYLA
T1 sequence (P62877 5-108, chain 2 of 3): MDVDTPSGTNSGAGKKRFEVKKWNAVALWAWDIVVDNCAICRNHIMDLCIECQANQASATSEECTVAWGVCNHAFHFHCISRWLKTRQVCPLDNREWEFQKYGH
T1 sequence (Q15843 1-76, chain 3 of 3): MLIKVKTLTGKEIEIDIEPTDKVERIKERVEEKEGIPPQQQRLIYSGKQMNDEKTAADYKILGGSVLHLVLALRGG

B1: UBE2R2 (enzyme, human, UniProt Q712K3 1-238, looked up)
chain: MAQQQMTSSQKALMLELKSLQEEPVEGFRITLVDESDLYNWEVAIFGPPNTLYEGGYFKAHIKFPIDYPYSPPTFRFLTKMWHPNIYENGDVCISILHPPVDDPQSGELPSERWNPTQNVRTILLSVISLLNEPNTFSPANVDASVMFRKWRDSKGKDKEYAEIIRKQVSATKAEAEKDGVKVPTTLAEYCIKTKVPSNDNSSDLLYDDLYDDDIDDEDEEEEDADCYDDDDSGNEES
notes: UBE2R2, human, wild type; In the trapped cryo-EM complexes the active site Cys93 is cross-linked to the BmDPA ligation mimic; in the di-ubiquitin synthesis assays it is thioesterified to 32P-labelled donor ubiquitin; also called WT (R2); UBE2R2 FL; source: E. coli Rosetta (DE3), purified (nickel-agarose or GST-sepharose, TEV, SEC); not shown: GST or 6xHis (either), N-terminal, cleaved
- binding result (neddylated CUL1–RBX1): binds
- binding result [1]: binds
